Source: patent US9611303B2, “Modified biotin-binding protein” (Japan Tobacco Inc., priority 2009, dated 2017)

Key:
[1] = Purification of LATM2 with biotin-agarose; format: binding
Experimental: Purification with biotin-agarose (manufactured by Sigma-Aldrich Corp.) was performed by the following procedure. After induced expression of 25 mL of a culture solution of E. coli for each LATM2, the E. coli cells were suspended in 1.5 mL of a 100 mM potassium phosphate buffer (pH 7.0), and then sonicated. To the supernatant of the disrupted cells. 400 μL of biotin-agarose was added, which was followed by upside-down mixing for 1 hr. […]
In TM2 S36A-T78A-D116A, the E. coli cells were suspended in 1.5 mL of 50 mM CAPS (pH 12) containing 50 mM NaCl, and then sonicated. To the disrupted cells, 400 μL of biotin-agarose was added, which was followed by upside-down mixing for 1 hr. The column was sufficiently washed with 50 mM CAPS (pH 12) containing 500 mM NaCl, and elution was then performed with 1 mL of PBS (pH 7.4) containing 10 mM biotin.
In TM2 S36A-D116A, the E. coli cells were suspended in 1.5 mL of a 100 mM potassium phosphate buffer (pH 4.0), and then sonicated. To the pupernatant of the disrupted cells, 400 μL of biotin-agarose was added. Washing was performed with a 100 mM potassium phosphate buffer (pH 4) containing 500 mM NaCl, and elution was performed with 1 mL of PBS (pH 7) containing 10 mM biotin. Biotin binding to LATM2 that has been eluted with an excess amount of biotin was removed by dialysis with a 20 mM potassium phosphate buffer overnight.
(§1) The recovery rate in Table 2 was calculated by dividing the amount of LATM2 protein after purification by the amount of LATM2 protein before purification and was expressed by percent by multiplying the quotient by 100. The degree of purification was the ratio of the amount of LATM2 protein to the total amount of proteins in the purified fraction and was expressed by percent by multiplying the ratio by 100. The recovery rates and the degrees of purification in biotin-agarose were the results after binding at pH 7 and elution with an excess amount of biotin.

[2] = Heat resistance of LATM2 by SDS-PAGE; format: physicochemical; conditions: absence of biotin, 20 min in SDS sample buffer
Experimental: The heat resistance of LATM2s was investigated by SDS-PAGE. Each protein was heat treated at predetermined temperatures for 20 min in an SDS sample buffer in the presence or absence of biotin and was then subjected to SDS-PAGE, followed by CBB staining. The heating temperatures in a biotin-free experimental system were 80° C., 82° C., 84° C., 86° C., 88° C., 90° C., 92° C., and 94° C., and heating temperatures in a biotin-containing experimental system were 86° C., 88° C., 90° C., 92° C., 96° C., 98° C., and 100° C.

[3] = Purification of LATM2 with 2-iminobiotin-agarose; format: binding; conditions: for Recovery rate (%): Iminobiotin-agarose, binding at pH 12, elution with 50 mM NH4OAC (pH 4)
Experimental: LATM2 was purified through a column charged with 2-iminobiotin-agarose (manufactured by Sigma-Aldrich Corp.) in accordance with the method by Hofmann, et al., (1980). IPTG was added to 25 mL of a culture solution of E. coli transformed with each LATM2 in a final concentration of 1 mM to induce expression. The E. coli cells were collected by centrifugation, suspended in 1.5 mL of 50 mM CAPS (pH 12) containing 50 mM NaCl, and then sonicated. To the supernatant of the disrupted cells, 500 μL of 2-iminobiotin-agarose was added, which was then packed in a column. The column was sufficiently washed with 50 mM CAPS (pH 12) containing 500 mM NaCl, and elution was then performed with 50 mM NH4OAC (pH 4).
as §1

[4] = Subunit association by FPLC on Sephacryl S-100HR; format: physicochemical; conditions: for Structure (identified by FPLC): Sephacryl S-100HR, 50 mM potassium phosphate, 500 mM NaCl; for Sephacryl (mL), elution peak position: tetramer 44 to 47 mL, dimer 51 to 54 mL, monomer 63 to 66 mL
Experimental: In order to analyze the subunit association conditions of LATM2, the molecular weight of each LATM2s was measured by FPLC. Sephacryl S-100HR (manufactured by GE Healthcare) was used as a column, a Gel Filtration Calibration Kit LMW (manufactured by GE Healthcare) was used as molecular weight markers, and 50 mM potassium phosphate containing 500 mM NaCl was used as a buffer.
The positions of the peaks of eluted tetramer were defined to be 44 to 47 mL after injection of WT-TM2 as a control. The peak of an eluted monomer appeared at around 63 to 66 mL and the peak of an eluted dimer appeared at around 51 to 54 mL, from result of loading the molecular weight markers.

Proteinase K = assay: Protease resistance of LATM2 (SDS-PAGE); conditions: 5 μM Proteinase K, 30° C., 15 min, presence or absence of biotin
Experimental: Throughout the specification, “having protease resistance” refers to that a protein is not enzymatically decomposed or not substantially decomposed by protease treatment. The protease treatment is performed by, for example, proteinase K treatment at 30° C. for 15 min. The term “not enzymatically decomposed” refers to that bands of a tetramer, dimer, and/or monomer of the protein can be clearly detected by SDS-PAGE after enzyme treatment, as in wild-type TM2. That is, a protein not having protease resistance is decomposed into small molecules by protease treatment, and bands of the tetramer, dimer, and monomer are not detected by SDS-PAGE after the protease treatment. […] Accordingly, bands of the tetramer and/or the dimer or monomer generated by dissociation of the tetramer are detected by SDS-PAGE. […] of each of the LATM2s (TM2 S36A, TM2 […], TM2 […], TM2 […], TM2 […], TM2 S36A-[…], TM2 […], and […]) purified by biotin-agarose was subjected to a reaction in 50 mM Tris-HCl (pH 8.0) containing 5 μM Proteinase K and 5 mM CaCl2 at 30° C. for 15 min. […] Then, an SDS buffer was added to each reaction solution, followed by heat treatment at 95° C. for 10 min to terminate the reaction. The resulting sample was subjected to SDS-PAGE, followed by CBB staining.

[5] = Biotin-binding ability of TM2 D40N
[6] = pH-dependence of binding to biotin-agarose
Experimental: E. coli cells were collected from 25 mL of an E. coli culture solution in which expression TM2 S36A-D116A was induced with 1 mM IPTG, were suspended in 1.5 mL of a 100 mM potassium phosphate buffer ([…]) or 1.5 mL of a 50 mM CAPS (pH 12.0), and then were sonicated. The disrupted cells were centrifugated, and 400 μL of biotin-agarose was added to the supernatant. […] Furthermore, the TM2 S36A-D116A protein was dissociated from the carrier by increasing the pH of the reaction solution to 7.0 or 12.0 and was recovered at an efficiency of 95%.
TM2 S36A-T78A-D116A was also investigated for its pH-dependence. The protein was suspended in a buffer of pH 4.0 or pH 12.0 and was sonicated. […] By utilizing this property, high purity TM2 S36A-T78A-D116A was obtained by binding the protein to biotin-agarose at pH 4.0 and eluting it at pH 7.0 (FIG. 3B).

[7] = Biotin-agarose, binding at pH 7, recovery with 10 mM biotin

| Molecule | Recover rate (%) [1, 7] | Tr value (temperature at which ratio monomer:tetramer becomes 1:1) [2] | Recovery rate (%) [3] | Structure (identified by FPLC) [4] | Sephacryl (mL), elution peak position [4] | decomposition by Proteinase K (Proteinase K) | binding to 2-iminobiotin-agarose [3] | other results |
| --- | --- | --- | --- | --- | --- | --- | --- | --- |
| TM2 T78A: TM2 in which the 78th threonine was replaced with alanine; SEQ ID NO: 10 (protein, Synthetic TM2 T78A) MSDVQSSLTGTWYNELNSKMELTANKDGTLTGKYLSKVGDVYVPYPLSGRYNLQPPAGQGVALGWAVSWENSKIHSAATWSGQFFSESSPVILTQWLLSSSTARGDVWESTLVGNDSFTKTAPTEQQIAHAQLHCRAPRLK | about 95% | 88 °C | 10% | tetramer | 45.71 mL | hardly decomposed |  | Recover rate (%) ([1]; Biotin-agarose, binding at pH 7, recovery with 10 mM biotin, listed as T78A): 95%; recovery rates compared with WT ([3]; purification with 2-iminobiotin-agarose): inferior to WT; Structure (identified by FPLC) ([4]; listed as T78A): Tetramer |
| TM2 D40N: TM2 having modification of the 40th aspartic acid to asparagine (protein) MSDVQSSLTGTWYNELNSKMELTANKDGTLTGKYLSKVGNVYVPYPLSGRYNLQPPAGQGVALGWAVSWENSKIHSATTWSGQFFSESSPVILTQWLLSSSTARGDVWESTLVGNDSFTKTAPTEQQIAHAQLHCRAPRLK |  |  |  |  |  |  |  | biotin-binding ability relative to TM2 [5]: increases |
| TM2 S36A-D116A: TM2 with 36th serine and 116th aspartic acid replaced with alanine; SEQ ID NO: 20 (protein, Synthetic TM2 S36A-D116A) MSDVQSSLTGTWYNELNSKMELTANKDGTLTGKYLAKVGDVYVPYPLSGRYNLQPPAGQGVALGWAVSWENSKIHSATTWSGQFFSESSPVILTQWLLSSSTARGDVWESTLVGNASFTKTAPTEQQIAHAQLHCRAPRLK | 0% |  | 0% | Tetramer | 46.31 mL | approximate a half thereof was decomposed | did not bind | recovery rate by binding at pH 4, elution at pH 7 (without biotin) ([1]; Biotin-agarose): 95%; recovery rate by binding at pH 4, elution at pH 7 (without biotin) ([1]; Biotin-agarose, listed as S36AD116A): recovery rate: 95%; binding to biotin-agarose ([6]; extract at pH 4.0, pH 5.0, or pH 6.0): efficiently bound to biotin-agarose; binding to biotin-agarose ([6]; extract at pH 7.0 or pH 12.0): did not bind to biotin-agarose at all; recovery efficiency on dissociation from the carrier ([6]; increasing the pH to 7.0 or 12.0): 95% |
| WT-TM2: wild-type tamavidin 2, protein comprising the amino acid sequence SEQ ID NO: 2, from Pleurotus cornucopiae (protein, listed as Pleurotus cornucopiae) MSDVQSSLTGTWYNELNSKMELTANKDGTLTGKYLSKVGDVYVPYPLSGRYNLQPPAGQGVALGWAVSWENSKIHSATTWSGQFFSESSPVILTQWLLSSSTARGDVWESTLVGNDSFTKTAPTEQQIAHAQLHCRAPRLK | 0% | 78 °C | 95% | Tetramer | 46.23 mL | hardly decomposed |  | binding to biotin-agarose [1]: efficiently adsorbs to biotin-agarose; elution from biotin-agarose with an excess amount of biotin [1]: not eluted; Note (Biotin-agarose) ([1]; binding at pH 7, recovery with 10 mM biotin, FT = flow-through): not eluted |
| TM2 S36A-T78A-D116A: TM2 with 36th serine, 78th threonine and 116th aspartic acid replaced with alanine; SEQ ID NO: 8 (protein, Synthetic TM2 S36A-T78A-D116A) MSDVQSSLTGTWYNELNSKMELTANKDGTLTGKYLAKVGDVYVPYPLSGRYNLQPPAGQGVALGWAVSWENSKIHSAATWSGQFFSESSPVILTQWLLSSSTARGDVWESTLVGNASFTKTAPTEQQIAHAQLHCRAPRLK | 0% |  | 0% | dimer | 51.06 mL | hardly decomposed | did not bind | recovery rate by binding at pH 4 or 12, elution at pH 7 (without biotin) ([1]; Biotin-agarose): recovery rate: 95%; Structure (identified by FPLC) ([4]; listed as S36AT78AD116A): Dimer; binding to biotin-agarose ([6]; pH 4.0 or pH 12.0): confirm its binding to biotin-agarose; binding to biotin-agarose ([6]; pH 7.0): did not bind to biotin-agarose at all |
